From the supplement of paper PMC9170038 come the findings set out here.

The test system of data set [1] is MS2 coat protein. The data set is described as follows: apparent KD of MS2 coat protein, switch ON state; designed switch direction (-1 OFF switch, 1 ON switch): 1; higher = weaker reporter binding. To be noted: FMN input: 0 or 200 uM; Eterna round: R93 (includes R88 designs). An outline of the steps:
(§1)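 For every design, apparent KD is the median of normalised binding-curve fits from its clusters. The RNA switches were transcribed on-chip from Illumina sequencing clusters and titrated with SNAP-549-labelled MS2 coat protein (twofold steps, 0.7 or 1.5 nM to 3 µM; 0.8–1.5 h to 10–20 min per step). Titrations used 100 mM Tris-HCl pH 7.5, 80 mM KCl, 4 mM MgCl2, without or with constant ligand.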

Data set [2] concerns MS2 coat protein. Kind of data set: apparent KD of MS2 coat protein, switch OFF state (with FMN for OFF switches, without FMN for ON switches); designed switch direction (-1 OFF switch, 1 ON switch): 1; higher = weaker reporter binding. Conditions: FMN input: 0 or 200 uM; Eterna round: R93 (includes R88 designs). An outline of the steps:
as §1

For “GAAGACAUAGUUCAGGAUAUGGUAAUAGUCACAUGAGGAUCACCCAUGUGCAUUUAUAUGCGCGAUCAGAAGGGAGGUAGAUAAG [Mat - Same state - Malcolm Mod - D116]”, the “apparent KD of MS2 coat protein” value is 18.6 nM with MS2 coat protein [1] and 18.3 nM in the data set on MS2 coat protein [2].

As to “AAUAUAUUAAGUGAGGAUAUCAUAGGAAAAACAUGAGGAUCACCCAUGUGGGAAACCUGGUCGGGUGAGAAGGUACUUAAUAUAU [Samwise Clockwise 31 - Jieux - Same State 2]”, the figures for the “apparent KD of MS2 coat protein” value in the data set with MS2 coat protein [1] and with MS2 coat protein [2] were 69.2 nM and 175 nM, respectively.

As for “AGAAAUAAAAGACAGGAUAUCCAAACUCAAACAUGAGGAUCACCCAUGUAAAAGAAAAUAAAGUGGGAGAAGGGUCAAAAUAAGA [Jieux modified + C segment V4]”, the figures for the “apparent KD of MS2 coat protein” value with MS2 coat protein [1] and with MS2 coat protein [2] were 12.6 nM and 33.1 nM, respectively.

With “CGGAGACAUGAGGAUCACCCAUGUGAGAAGAGGCGAGGAUAUCGAAAGAAAGAAGAGAAACGAGAAGGCGCGAGUA [salish99-SS1-066]”, the “apparent KD of MS2 coat protein” value in the data set with MS2 coat protein [1] amounted to 20.3 nM; with MS2 coat protein [2], 31.9 nM.

For the sequence “AAUACACAUGGUCAGGAUAUCGCAGCUAGGACAUGAGGAUCACCCAUGUCGUAAGUAAAAGUAAAUGAGAAGGGACAGGGUGACC [JR_SS002_Sub406]”, the “apparent KD of MS2 coat protein” value in the data set with MS2 coat protein [1] is 133 nM; in the data set on MS2 coat protein [2] it was 28.2 nM.

In the case of “AAUCCAAAUAGUUAGGAUAUGGGAAUUAAAACAUGAGGAUCACCCAUGUAAUUGAAACAAGUUAACCAGAAGGGACAGGGUGAAA [JR_SS002_Sub209]”, the entries for the “apparent KD of MS2 coat protein” value with MS2 coat protein [1] and with MS2 coat protein [2] were 68.8 nM and 46.1 nM, respectively.

As to “GAAAAACAUGAGGAUCACCCAUGUAAAAAUAUGGGAGGAUAUUCAAAGACGAAAGGGAAAGAAGAAGGCCUAAAAG [Garnet 4]”, the “apparent KD of MS2 coat protein” value in the data set with MS2 coat protein [1] was 82.7 nM; in the data set on MS2 coat protein [2], 1300 nM.

For the sequence “CGCGAACAUGAGGAUCACCCAUGUGAAAAACACAGAGGAUAUGUCGCAUGCGUGUAAAAGACAGAAGGCUGUCGCG [mod of top voted: #3]”, the figures for the “apparent KD of MS2 coat protein” value in the data set with MS2 coat protein [1] and in the data set with MS2 coat protein [2] were 19.7 nM and 84 nM, respectively.

Consider “AAGAAACAUGAGGAUCACCCAUGUAAGAUAAACACAGGAUAUGCGAAAGAAAUAAAGAAAGCAGAAGGGUGAAGAA [Mat - Same State 1 - Tesla mod - D147]”, for which the results for the “apparent KD of MS2 coat protein” value in the data set with MS2 coat protein [1] and in the data set with MS2 coat protein [2] were 14.3 nM and 26.8 nM, respectively.

Regarding “AUAAAAUAAAAGGAGGAUAUCCAUAAUAAAACAUGAGGAUCACCCAUGUAAAAAAGAAGAAAAUGGGAGAAGGCCUAAAAUAAAU [SS2 M 27]”, the results for the “apparent KD of MS2 coat protein” value in the data set on MS2 coat protein [1] and in the data set on MS2 coat protein [2] were 11.4 nM and 23.6 nM, respectively.

For “AUAAAACAUGAGGAUCACCCAUGUAAAAAAGCAUGAGGAUAUAUAAAAAGAAAAAGAAGAAUAGAAGGCAUAAUAA [JR_SS001_Sub1223]”, the “apparent KD of MS2 coat protein” value was determined as 60.7 nM in the data set on MS2 coat protein [1] and 50.5 nM with MS2 coat protein [2].

As for “GCAAAACAUGAGGAUCACCCAUGUCAACAAAAUCAAGGAUAUGAGCCAGCAAUGCCGGCAUCAGAAGGUGAACCUU [Enqule]”, the “apparent KD of MS2 coat protein” value in the data set with MS2 coat protein [1] came to 53.2 nM; in the data set with MS2 coat protein [2], 68.5 nM.

For the sequence “GUGUAUAGAAUCGAGGAUAUCCUGUAAUGCACAUGAGGAUCACCCAUGUAAGAGCGAGAAUAAUGGGAGAAGGCGAGUUAUCGGU [JR_SS002_Sub1710]”, the results for the “apparent KD of MS2 coat protein” value in the data set on MS2 coat protein [1] and in the data set on MS2 coat protein [2] were 27.5 nM and 46.1 nM, respectively.

On to “UAUAAACAUGAGGAUCACCCAUGUAGAAAUAUGGGAGGAUAUACAAAGACGAAAGUCAAAGUAGAAGGCCUAAUAA [Mat - Same State 1 - Mod - D156]”, for which the results for the “apparent KD of MS2 coat protein” value in the data set with MS2 coat protein [1] and in the data set with MS2 coat protein [2] were 16.6 nM and 89.4 nM, respectively.

As to “AAUACAAAUAGUCAGGAUAUCAAAAAUAAGACAUGAGGAUCACCCAUGUAAUAAGUAAAAGUAAAUGAGAAGGGACAGGGUGAAA [JR_SS002_Sub401]”, the “apparent KD of MS2 coat protein” value with MS2 coat protein [1] came to 530 nM; in the data set on MS2 coat protein [2] it was 59.2 nM.

For “GGAAAACAUGAGGAUCACCCAUGUGAAAACGUGGGAGGAUAUCGAUGGAAACCAUACUGUCGAGAAGGCCCAUGUC [EteRNA is fun!]”, the “apparent KD of MS2 coat protein” value in the data set on MS2 coat protein [1] is 18.5 nM; in the data set on MS2 coat protein [2] it was 47.2 nM.

In the case of “AAAACACAUGAGGAUCACCCAUGUGCAAAAUUCGCAGGAUAUUCCUCAAUUAAAUGAGAGGAAGAAGGGUGAUAAA [Nob's Hobby 33 - Jieux - Same State 1]”, the “apparent KD of MS2 coat protein” value with MS2 coat protein [1] is 18.9 nM; in the data set with MS2 coat protein [2], 53.4 nM.

As to “GGGAAGAAGAGAGAGGAUAUCCAAAGGAAAACAUGAGGAUCACCCAUGUAAAAGGUAGGAAAUUGGGAGAAGGCUCAAAAGAGGG [salish99-ss2-032]”, the “apparent KD of MS2 coat protein” value in the data set on MS2 coat protein [1] amounted to 29 nM; with MS2 coat protein [2], 39.4 nM.

For the sequence “AAUAUACAUGAGGAUCACCCAUGUUAGGUGGGACUAGGAUAUCAAAAUAAAUAAAGAACAUGAGAAGGAGUAUCAA [JR_SS001_Sub401]”, the “apparent KD of MS2 coat protein” value amounted to 94.5 nM in the data set on MS2 coat protein [1] and 152 nM in the data set with MS2 coat protein [2].

With “AAAAUAUAAACGGAGGAUAUCCAAAGAACCACAUGAGGAUCACCCAUGUAAAGAAAGAAUAAGUGGGAGAAGGCCGAAAUAAUAA [Designing denovo 27]”, the results for the “apparent KD of MS2 coat protein” value with MS2 coat protein [1] and in the data set on MS2 coat protein [2] were 18.9 nM and 56.9 nM, respectively.

For “AGGAGACAUGAGGAUCACCCAUGUGCACGGUGAAGAGGAUAUGUGCGUGGAGAGACACGGACAGAAGGCUUAAGAA [JR_SameState1_Sub5]”, the “apparent KD of MS2 coat protein” value in the data set on MS2 coat protein [1] came to 23 nM; in the data set on MS2 coat protein [2], 38.9 nM.

Take “AGGAAACAUGAGGAUCACCCAUGUAAAAGGUGGGUAGGAUAUGCGAAAAGAAAAAGAAAAGCAGAAGGACCAAGAA [62%, Something completely different, 1]”: the results for the “apparent KD of MS2 coat protein” value in the data set on MS2 coat protein [1] and in the data set on MS2 coat protein [2] were 38.7 nM and 108 nM, respectively.

Regarding “GAAAAACAUGAGGAUCACCCAUGUGUAAAUAUGGAAGGAUAUACAAAGACGUAAGUCAAAGUAGAAGGUCUAAAAG [Mat - Same State 1 - Eli mod - D17]”, the “apparent KD of MS2 coat protein” value in the data set with MS2 coat protein [1] was 18.8 nM; in the data set on MS2 coat protein [2], 23.5 nM.

For the sequence “GGAGUACAUGAGGAUCACCCAUGUUGGAACAAAGUAGGAUAUGUACAAUAUUAAAUAAAAACAGAAGGACUAAGAA [Gold Rush]”, the “apparent KD of MS2 coat protein” value is 23.3 nM in the data set with MS2 coat protein [1] and 37.1 nM with MS2 coat protein [2].

Take “UGAAAACAUGAGGAUCACCCAUGUAGAAAUAUGGGAGGAUAUACGAAGACGAAAGUCAAAGUAGAAGGCCUAAAUG [Mat - Same State 1 - Eli mod - D110]”: the “apparent KD of MS2 coat protein” value in the data set on MS2 coat protein [1] came to 27.6 nM; in the data set with MS2 coat protein [2], 72.1 nM.

Consider “AGAAGACAUGAGGAUCACCCAUGUGGGAUUAUGGGAGGAUAUACAAAGACGAGAGUCAGAGUAGAAGGCCUAGGAG [salish99-ss1-114(!)]”, for which the “apparent KD of MS2 coat protein” value in the data set on MS2 coat protein [1] came to 45.4 nM; in the data set with MS2 coat protein [2], 66.4 nM.

Turning to “GGGAGGAAGAGAGAGGAUAUCCAAAGGAAAACAUGAGGAUCACCCAUGUAAAAGGUAGGAAAUUGGGAGAAGGCUCAAGAGAAAG [salish99-ss2-054]”, the entries for the “apparent KD of MS2 coat protein” value in the data set with MS2 coat protein [1] and in the data set with MS2 coat protein [2] were 29.8 nM and 51.6 nM, respectively.

As for “AGGAAACAUGAGGAUCACCCAUGUAUAAAAAUGGGAGGAUAUACAAAGACGAAAGUCAAAGUAGAAGGCCUAAAAA [76%, Meechl, 7]”, the figures for the “apparent KD of MS2 coat protein” value with MS2 coat protein [1] and in the data set on MS2 coat protein [2] were 18.8 nM and 51.5 nM, respectively.

Turning to “GGGAGGAAGAGAGAGGAUAUCCAAAGGAAAACAUGAGGAUCACCCAUGUAAAAGGUAGGAAAUUGGGAGAAGGCUCAAGAGAGGG [salish99-ss2-051]”, the “apparent KD of MS2 coat protein” value was 23.6 nM with MS2 coat protein [1] and 28 nM in the data set with MS2 coat protein [2].
